Results taken from patent publication US20260265410A1 (UNIVERSITY OF FLORIDA RESEARCH FOUNDATION, published 2026).

T1: N-terminal domain (NTD) of human PTPRG (amino acid residues 20~448 of human PTPRG) (human, UniProt P23470 20-448)
T1 construct: also called hPTPRG-NTD; human PTPRG NTD
T1 sequence: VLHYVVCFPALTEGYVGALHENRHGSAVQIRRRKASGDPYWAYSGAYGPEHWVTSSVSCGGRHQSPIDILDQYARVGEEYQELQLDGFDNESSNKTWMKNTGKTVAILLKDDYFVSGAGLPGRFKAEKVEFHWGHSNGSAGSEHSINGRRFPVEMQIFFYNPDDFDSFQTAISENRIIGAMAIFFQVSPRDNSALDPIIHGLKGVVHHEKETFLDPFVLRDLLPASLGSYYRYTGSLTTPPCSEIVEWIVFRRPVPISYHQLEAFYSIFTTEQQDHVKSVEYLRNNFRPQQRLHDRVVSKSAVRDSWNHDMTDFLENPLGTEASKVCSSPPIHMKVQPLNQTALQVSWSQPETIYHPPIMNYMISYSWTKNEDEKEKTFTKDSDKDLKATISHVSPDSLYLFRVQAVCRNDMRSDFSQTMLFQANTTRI

T2: mouse PTPRG ECD (amino acid residues 20-733 of mouse PTPRG) fused to hFc (mouse, UniProt Q05909 20-733)
T2 construct: Produced in-house; also called mPTPRG-ECD; Mouse PTPRG-ECD-hFc; not shown: human Fc (hFc)
T2 sequence: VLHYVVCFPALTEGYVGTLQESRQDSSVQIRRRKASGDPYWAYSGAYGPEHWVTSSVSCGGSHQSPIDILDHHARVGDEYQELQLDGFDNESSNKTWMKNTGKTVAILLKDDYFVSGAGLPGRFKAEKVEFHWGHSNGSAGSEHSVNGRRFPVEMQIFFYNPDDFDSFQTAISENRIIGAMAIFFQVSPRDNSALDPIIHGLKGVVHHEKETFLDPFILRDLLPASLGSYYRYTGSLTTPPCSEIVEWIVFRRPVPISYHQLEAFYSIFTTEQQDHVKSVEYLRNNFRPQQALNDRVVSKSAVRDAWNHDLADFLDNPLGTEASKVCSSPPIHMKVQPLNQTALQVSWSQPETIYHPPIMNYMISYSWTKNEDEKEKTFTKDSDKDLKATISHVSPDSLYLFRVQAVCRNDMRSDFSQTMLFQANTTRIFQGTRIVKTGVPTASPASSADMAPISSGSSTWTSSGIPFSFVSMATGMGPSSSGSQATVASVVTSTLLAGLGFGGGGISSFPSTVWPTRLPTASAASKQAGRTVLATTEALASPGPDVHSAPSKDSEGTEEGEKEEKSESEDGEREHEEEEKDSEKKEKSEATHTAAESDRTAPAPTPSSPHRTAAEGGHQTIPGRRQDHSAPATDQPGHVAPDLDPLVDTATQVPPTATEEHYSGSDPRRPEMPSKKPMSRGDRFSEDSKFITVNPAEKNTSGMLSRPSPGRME

T3: human PTPRG extracellular domain (ECD) (residues 20~736 of human PTPRG) fused to hFc (human, UniProt P23470 20-736)
T3 construct: Produced in-house by transient transfection of Expi293 cells; also called hPTPRG-ECD-hFc; hPTPRG-ECD; not shown: human Fc (hFc)
T3 sequence: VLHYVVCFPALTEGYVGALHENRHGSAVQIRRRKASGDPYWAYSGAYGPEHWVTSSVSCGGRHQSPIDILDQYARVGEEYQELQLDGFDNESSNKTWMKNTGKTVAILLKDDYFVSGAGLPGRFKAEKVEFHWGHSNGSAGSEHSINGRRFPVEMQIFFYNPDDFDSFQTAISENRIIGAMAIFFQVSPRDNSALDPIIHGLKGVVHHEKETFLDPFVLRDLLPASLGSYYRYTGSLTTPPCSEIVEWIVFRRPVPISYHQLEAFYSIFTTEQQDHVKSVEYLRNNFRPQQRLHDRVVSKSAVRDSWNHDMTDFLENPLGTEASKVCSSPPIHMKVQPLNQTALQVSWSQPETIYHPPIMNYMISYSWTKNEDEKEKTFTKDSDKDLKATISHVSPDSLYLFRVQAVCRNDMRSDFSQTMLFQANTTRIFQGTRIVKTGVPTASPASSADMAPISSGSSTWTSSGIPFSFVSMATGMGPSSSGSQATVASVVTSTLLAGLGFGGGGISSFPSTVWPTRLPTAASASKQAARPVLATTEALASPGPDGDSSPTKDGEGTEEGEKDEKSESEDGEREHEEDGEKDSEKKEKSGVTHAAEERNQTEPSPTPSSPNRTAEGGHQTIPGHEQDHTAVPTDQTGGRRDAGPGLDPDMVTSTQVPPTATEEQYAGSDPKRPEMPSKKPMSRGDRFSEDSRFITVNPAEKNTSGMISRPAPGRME

T4: human Nectin-2 on the cell surface (U937 cells) (human, UniProt Q92692 32-538)
T4 construct: Endogenous Nectin-2 of U937 cells; also called PVRL2; CD112
T4 sequence: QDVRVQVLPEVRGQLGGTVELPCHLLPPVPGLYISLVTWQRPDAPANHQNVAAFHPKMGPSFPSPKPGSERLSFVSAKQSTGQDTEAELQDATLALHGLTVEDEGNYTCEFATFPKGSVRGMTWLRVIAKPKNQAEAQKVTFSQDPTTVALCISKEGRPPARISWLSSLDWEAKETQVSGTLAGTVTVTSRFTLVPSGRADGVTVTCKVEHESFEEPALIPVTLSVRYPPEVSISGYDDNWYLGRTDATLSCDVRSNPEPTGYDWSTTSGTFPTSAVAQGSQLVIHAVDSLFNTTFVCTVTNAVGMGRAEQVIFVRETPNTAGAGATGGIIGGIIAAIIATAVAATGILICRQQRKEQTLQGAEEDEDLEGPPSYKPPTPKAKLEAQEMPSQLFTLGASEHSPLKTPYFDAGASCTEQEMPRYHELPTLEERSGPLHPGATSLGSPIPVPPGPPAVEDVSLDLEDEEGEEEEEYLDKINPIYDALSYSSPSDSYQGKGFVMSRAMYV

T5: human CD105-ECD: amino acid residues Met 1-Gly 586 of human CD105 (Sino bio: Cat: 10149-H02H) (human, UniProt P17813 26-586)
T5 construct: Bought; also called hCD105-ECD-hFc; hCD105-hFc
T5 sequence: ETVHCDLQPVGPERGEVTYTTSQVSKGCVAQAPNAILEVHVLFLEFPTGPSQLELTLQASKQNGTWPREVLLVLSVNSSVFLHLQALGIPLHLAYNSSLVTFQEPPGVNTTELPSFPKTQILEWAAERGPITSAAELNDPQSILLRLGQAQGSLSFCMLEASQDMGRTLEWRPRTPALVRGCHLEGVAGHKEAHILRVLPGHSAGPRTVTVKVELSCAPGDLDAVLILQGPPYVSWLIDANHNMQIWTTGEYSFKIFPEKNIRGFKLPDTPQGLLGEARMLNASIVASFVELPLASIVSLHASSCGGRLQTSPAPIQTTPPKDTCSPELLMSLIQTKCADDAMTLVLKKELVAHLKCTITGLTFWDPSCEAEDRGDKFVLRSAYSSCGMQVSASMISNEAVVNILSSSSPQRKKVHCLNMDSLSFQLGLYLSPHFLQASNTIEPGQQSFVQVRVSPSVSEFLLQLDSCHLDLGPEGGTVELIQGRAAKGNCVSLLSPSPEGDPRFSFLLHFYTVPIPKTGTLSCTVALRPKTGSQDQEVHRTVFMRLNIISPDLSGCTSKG

T6: human Nectin-2 extracellular domain (amino acid residues 1-360 of human Nectin-2) fused to hFc (human, UniProt Q92692 32-360)
T6 construct: Bought; also called hNectin-2-ECD-hFc; NECTIN2-ECD-hFc; not shown: human Fc (hFc)
T6 sequence: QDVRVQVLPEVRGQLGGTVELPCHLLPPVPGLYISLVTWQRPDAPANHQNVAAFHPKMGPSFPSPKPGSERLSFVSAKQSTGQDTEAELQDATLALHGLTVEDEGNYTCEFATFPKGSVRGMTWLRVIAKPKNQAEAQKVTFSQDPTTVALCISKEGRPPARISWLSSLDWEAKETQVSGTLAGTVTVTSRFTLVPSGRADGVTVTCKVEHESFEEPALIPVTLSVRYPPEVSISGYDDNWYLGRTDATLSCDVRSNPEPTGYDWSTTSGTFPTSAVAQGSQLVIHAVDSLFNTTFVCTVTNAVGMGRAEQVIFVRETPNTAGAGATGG


Assays:
[1] = biological target: T1, N-terminal domain (NTD) of human PTPRG …; test: ELISA, one condition per Fab and antigen; y axis 0 to 1.8 without name or unit
[2] = biological target: T2, mouse PTPRG ECD (amino acid residues …); test: as above
[3] = biological target: T3, human PTPRG extracellular domain (ECD) …; test: as above
[4] = biological target: T4, human Nectin-2 on the cell surface …; test: flow cytometry on whole U937 cells, screen of the 28 clones (Ctrl row = 0); Nectin-2 is named as the antigen on U937 cells only in the later examples
[5] = biological target: T5, human CD105-ECD: amino acid residues …; test: ELISA, absorbance at 405 nm, one condition per Fab and antigen
[6] = biological target: T4, human Nectin-2 on the cell surface …; test: competition flow cytometry on U937 cells; competitor of 0.5 µg Alexa 647 labelled Fab_2282
[7] = biological target: T6, human Nectin-2 extracellular domain …; test: ELISA, absorbance at 405 nm, one condition per Fab and antigen
[8] = biological target: T3, human PTPRG extracellular domain (ECD) …; test: as above

binding result [1]	binding result [2]	binding result [3]	flow cytometry binding value (the table prints no name or unit) [4]	binding result [5]	binding result [6]	binding result [7]	binding result [8]	Binder
no binding	no binding	no binding	94.8	no binding	–	–	–	Fab_484 (Fab, V domains shown, Chimeric rabbit/human Fab; also called N484) VH: AQSLEESGGRLVTPGTPLTLTCTASGFSLSSYHMAWVRQAPGKGLEWIGIISSSGSTYYASWAKGRFTISKTSTTVDLKITSPTTEDTATYFCARGFGWGPNLWGPGTLVTVSS VL: SFVLTQPASVQVNLGQMVSLTCTADTLSRSYASWYQQKPGQAPVLLIYRDTSRPSGVPDRFSGSTSGNTATLTISGAQAGDEADYYCATDDNSGSSYQYVFGGGTQLTVTG
–	–	–	–	–	no binding (tested: 5 µg)	no binding	no binding	Fab_2810 (Fab, V domains shown, Chimeric rabbit/human Fab; also called E2810; mAb_2810) VH: QEQLEESGGRLVTPGTPLTLTCTASGFSLTNYYMTWVRQAPGKGLEWIGTIYAGTGSTWYASWVKGRFTISKTSTTVDLKITSPTTEDTATYFCVRGYLGWSSGIENIWGPGTLVTVSS VL: SFVLTQPASVQVNLGQTVSLTCTADTLSRSYASWYQQKPGQAPVLLIYRDTSRPSGVPDRFSGSSSGNTATLTISGAQAGDEADYYCATSDGSGSTFHFVFGGGTQLTVTG
